Laboratory results published in patent publication US10064939B2, “Combination therapy using c-Met inhibitor and IGF-1R inhibitor for c-Met inhibitor resistant cancers” (Samsung Electronics Co., Ltd., priority 2014, dated 2018).

How the values were obtained:
[1] = system: MKN45 re#1 gastric cancer cells; assay: Cell proliferation, CellTiter Glo assay, anti-c-Met antibody resistance induced cell line MKN45 re#1; type: cell-based; conditions: 72 hours; for cell proliferation inhibition effect: single treatment: L3-1Y/IgG2 (2 μg/ml) only or linsitinib (10 uM) only, FIG. 7
Method: (§1) In particular, in order to obtain anti-c-Met antibody resistant MKN45 gastric cancer cells, MKN45 gastric cancer cells were administered with L3-1Y/IgG2 for at least 3 months by increasing the administration concentration. The amount of L3-1Y/IgG2 administered was increased from 1 μg/ml to 10 μg/ml, until resistance to L3-1Y/IgG2 is induced. The obtained L3-1Y/IgG2 resistant clones were named as MKN45re#1 and MKN45re#24, respectively.
(§2) In order to confirm the acquisition of resistance to L3-1Y/IgG2, the prepared L3-1Y/IgG2 resistant clones (MKN45 re#1 and MKN45 re#24) and MKN45 with no resistance were administered with various concentrations of L3-1Y/IgG2 (see FIG. 9). 72 hours after the antibody administration, the number of living cells was measured through CellTiter Glo assay (Promega, G7573).
(§3) The prepared L3-1Y/IgG2 resistance induced cell lines MKN45re#1 and MKN45re#24 were co-administered with L3-1Y/IgG2 and an IGF-1R inhibitor, to examine changes in cell proliferation of the L3-1Y/IgG2 resistance induced cell lines. Each of the L3-1Y/IgG2 resistant MKN45re#1 and MKN45re#24 cell lines was seeded on a 96-well plate at the amount of 10000 cells/well (medium: RPMI (GIBCO); culture conditions: 5% CO2 and 37° C.), and on the next day, treated with L3-1Y/IgG2 (2 μg/ml) and linsitinib (10 uM) together. 72 hours after the co-treatment, the number of living cells was counted by CellTiter Glo assay (Promega, G7573). For comparison, the same experiments were conducted using a control group with no treatment of L3-1Y/IgG or linsitinib, a group treated with L3-1Y/IgG (2 μg/ml) only, and a group treated with linsitinib (10 uM) only.

[2] = system: MKN45 re#24 gastric cancer cells; assay: Cell proliferation, CellTiter Glo assay, anti-c-Met antibody resistance induced cell line MKN45 re#24; type: cell-based; conditions: 72 hours; for cell proliferation inhibition effect: single treatment: L3-1Y/IgG2 (2 μg/ml) only or linsitinib (10 uM) only, FIG. 8
Method: as §1, §2, §3

MKN45 cells = assay: Cell proliferation, non-resistant MKN45 cells; type: cell-based
Method: as §2

Hs746T cell line = assay: Anticancer effect of anti-c-Met antibody used alone, Hs746T; type: cell-based
SNU-5 cell line = assay: Anticancer effect of anti-c-Met antibody used alone, SNU-5; type: cell-based
SNU-668 cell line = assay: Anticancer effect of anti-c-Met antibody used alone, SNU-668; type: cell-based
YCC-11 cell line = assay: Anticancer effect of anti-c-Met antibody used alone, YCC-11; type: cell-based
c-Met = c-Met (Homo sapiens, UniProt P08581); assay: Specificity of expressed scFv to c-Met; type: binding; conditions: after expression
Description: For use in constructing an scFv of the huAbF46 antibody from the heavy and light chain variable regions of the huAbF46 antibody, a gene was designed to have the structure of “VH-linker-VL” for each of the heavy and the light chain variable region, with the linker including the amino acid sequence “[…]” (SEQ ID NO: 54). A polynucleotide sequence (SEQ ID NO: 55) encoding the designed scFv of huAbF46 was synthesized in Bioneer and an expression vector for the polynucleotide had the nucleotide sequence of SEQ ID NO: 56.

[3] = various, increasing concentrations of L3-1Y/IgG2, FIG. 9

Chain of c-Met (P08581 25-1390): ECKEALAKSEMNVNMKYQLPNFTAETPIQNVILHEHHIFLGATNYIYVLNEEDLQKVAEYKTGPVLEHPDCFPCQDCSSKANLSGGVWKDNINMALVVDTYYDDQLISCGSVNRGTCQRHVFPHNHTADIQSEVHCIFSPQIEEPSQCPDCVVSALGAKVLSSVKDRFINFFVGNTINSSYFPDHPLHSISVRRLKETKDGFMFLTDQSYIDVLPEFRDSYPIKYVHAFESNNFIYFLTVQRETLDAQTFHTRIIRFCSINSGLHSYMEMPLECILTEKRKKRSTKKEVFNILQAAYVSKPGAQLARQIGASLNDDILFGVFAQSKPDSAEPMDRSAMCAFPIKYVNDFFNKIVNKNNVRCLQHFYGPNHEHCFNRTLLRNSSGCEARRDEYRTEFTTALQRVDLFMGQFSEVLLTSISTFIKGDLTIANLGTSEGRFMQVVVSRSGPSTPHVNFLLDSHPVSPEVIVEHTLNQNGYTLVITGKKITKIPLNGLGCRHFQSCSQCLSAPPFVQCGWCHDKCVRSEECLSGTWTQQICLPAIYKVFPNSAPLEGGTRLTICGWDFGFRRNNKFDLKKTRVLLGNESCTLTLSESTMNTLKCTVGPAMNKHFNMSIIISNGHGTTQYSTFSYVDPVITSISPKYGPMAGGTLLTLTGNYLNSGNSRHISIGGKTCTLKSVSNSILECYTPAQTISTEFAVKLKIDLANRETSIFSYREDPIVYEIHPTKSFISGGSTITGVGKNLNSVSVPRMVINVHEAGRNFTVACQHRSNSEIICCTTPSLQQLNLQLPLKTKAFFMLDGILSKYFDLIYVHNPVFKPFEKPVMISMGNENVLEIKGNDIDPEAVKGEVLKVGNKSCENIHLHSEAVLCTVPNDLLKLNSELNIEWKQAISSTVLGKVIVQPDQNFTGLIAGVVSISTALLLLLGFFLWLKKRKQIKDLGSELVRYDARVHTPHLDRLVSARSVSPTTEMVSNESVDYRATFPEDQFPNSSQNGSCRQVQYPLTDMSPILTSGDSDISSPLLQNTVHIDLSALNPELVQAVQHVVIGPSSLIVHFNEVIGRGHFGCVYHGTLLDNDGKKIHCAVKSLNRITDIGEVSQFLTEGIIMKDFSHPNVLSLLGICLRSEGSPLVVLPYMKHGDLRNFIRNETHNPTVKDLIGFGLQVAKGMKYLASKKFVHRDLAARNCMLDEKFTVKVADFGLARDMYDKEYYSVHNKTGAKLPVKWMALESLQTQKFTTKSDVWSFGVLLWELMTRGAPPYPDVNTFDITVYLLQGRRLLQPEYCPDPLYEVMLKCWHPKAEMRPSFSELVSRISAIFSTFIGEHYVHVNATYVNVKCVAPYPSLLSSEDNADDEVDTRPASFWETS

CC1(O)CC(c2nc(-c3ccc4ccc(-c5ccccc5)nc4c3)c3c(N)nccn23)C1 (stereo not drawn) [linsitinib, 3-[8-Amino-1-(2-phenyl-7-quinolyl)imidazo[1,5-a]pyrazin-3-yl]-1-methyl-cyclobutanol, reference compound]
cell proliferation inhibition effect [1]: no cell proliferation inhibition effect
cell proliferation inhibition effect [2]: no cell proliferation inhibition effect

B1: L3-1Y/IgG2: anti-c-Met antibody: huAbF46-H4-A1 variable regions, human IgG2 hinge and constant region, human kappa light chain with His36Tyr (antibody)
heavy: EVQLVESGGGLVQPGGSLRLSCAASGFTFTDYYMSWVRQAPGKGLEWLGFIRNKANGYTTEYSASVKGRFTISRDNSKNTLYLQMNSLRAEDTAVYYCARDNWFAYWGQGTLVTVSSASTKGPSVFPLAPCSRSTSESTAALGCLVKDYFPEPVTVSWNSGALTSGVHTFPAVLQSSGLYSLSSVVTVPSSNFGTQTYTCNVDHKPSNTKVDKTVERKCCVECPPCPAPPVAGPSVFLFPPKPKDTLMISRTPEVTCVVVDVSHEDPEVQFNWYVDGVEVHNAKTKPREEQFNSTFRVVSVLTVVHQDWLNGKEYKCKVSNKGLPAPIEKTISKTKGQPREPQVYTLPPSREEMTKNQVSLTCLVKGFYPSDIAVEWESNGQPENNYKTTPPMLDSDGSFFLYSKLTVDKSRWQQGNVFSCSVMHEALHNHYTQKSLSLSPGK
light: DIQMTQSPSSLSASVGDRVTITCKSSQSLLASGNQNNYLAWYQQKPGKAPKMLIIWASTRVSGVPSRFSGSGSGTDFTLTISSLQPEDFATYYCQQSYSRPYTFGQGTKVEIKRTVAAPSVFIFPPSDEQLKSGTASVVCLLNNFYPREAKVQWKVDNALQSGNSQESVTEQDSKDSTYSLSSTLTLSKADYEKHKVYACEVTHQGLSSPVTKSFNRGEC
cell proliferation inhibition effect [1]: no cell proliferation inhibition effect
proliferation (number of living cells) [1, 3]: not inhibited
cell proliferation inhibition effect [2]: no cell proliferation inhibition effect
proliferation (number of living cells) [2, 3]: not inhibited
effect (cancer cell proliferation inhibition effect) when administered alone (MKN45 cells): exhibits its effect
anticancer effect when used alone (Hs746T cell line): exhibits anticancer effect
anticancer effect when used alone (SNU-5 cell line): exhibits anticancer effect
anticancer effect when used alone (SNU-668 cell line): does not exhibit anticancer effect
anticancer effect when used alone (YCC-11 cell line): does not exhibit anticancer effect

B2: scFv of huAbF46: scFv of structure VH-linker-VL from heavy and light chain variable regions of huAbF46 (protein)
scFv: EVQLVESGGGLVQPGGSLRLSCAASGFTFTDYYMSWVRQAPGKGLEWLGFIRNKANGYTTEYSASVKGRFTISRDNSKNTLYLQMNSLRAEDTAVYYCARDNWFAYWGQGTLVTVSSGLGGLGGGGSGGGGSGGSSGVGSDIQMTQSPSSLSASVGDRVTITCKSSQSLLASGNQNNYLAWHQQKPGKAPKMLIIWASTRVSGVPSRFSGSGSGTDFTLTISSLQPEDFATYYCQQSYSAPLTFGQGTKVEIKR
specificity to c-Met (c-Met): exhibit specificity to c-Met
